Test [1] deals with T1, His-tagged human thrombin (human, UniProt P00734 328-622). The experiment in a line: binding ELISA; biotinylated His-tagged human thrombin on streptavidin plate. (An ELISA detects its analyte on a solid surface through an enzyme-linked reagent.)
The target of test [2] is T1, His-tagged human thrombin. The experiment in a line: Biacore SPR; ratio of the affinities for thrombin and prothrombin. In general terms: SPR reads the build-up and loss of mass on a sensor chip optically.
For test [3], the target named is T2, His-tagged human prothrombin (human, UniProt P00734 44-622, limits assumed).
T2 construct: not shown: His tag
The experiment in a line: binding ELISA; His-tagged human prothrombin coated on plate.

A word on the EC50: it is the concentration needed to bring the measured effect to its halfway point. A low value points to higher potency in that assay.

B1: h1601-008 (antibody, V domains shown)
VH: EVQLVESGGGLVQPGGSLRLSCAASGFTFSDYYMAWVRQAPGKGLEWVSNINSDGSSTYYLDSLKSRFTISRDNSKNTLYLQMNSLKAEDTAVYYCARDHYHGNSYVFDYWGQGTTVTVSS
VL: DIQMTQSPSSLSASVGDRVTITCKASEDIYNRLAWYQQKPGKAPRLIISGATSLETGVPSRFSGSGSGKDYTLTISSLQPEDFATYYCQQYWSTPWTFGGGTKVEIK
notes: Humanized parent antibody from WO2017133673A1; Only VH and VL are tied to it; it was detected with an anti-human secondary antibody and captured with an anti-human capture kit
As for B1, the concentration giving a half-maximal response (EC50) in test [1] is 0.375 µg/mL; in test [3] it was 0.151 µg/mL. For the same molecule, in test [2], the “selective activity (affinity for thrombin relative to affinity for prothrombin)” value stood at 11.2.
